Results published in patent US20160193296A1, “METHODS FOR TREATMENT OF MICROCEPHALY ASSOCIATED AUTISM DISORDERS” (BROWN UNIVERSITY, priority 2012, published 2016).

Experiments:
[1] = system: NHE6 mutant hippocampal neurons; test: Axonal and dendritic branching of cultured hippocampal neurons with exogenous BDNF; type: cell-based, mouse
Method: (§1) Hippocampi were dissected from P0-P1 mice, dissociated with papain (20 units/ml) in Earle's Balanced Salt Solution (EBSS) with bicarbonate at 37° C. for 30 min and triturated with a 1 ml pipette. Hippocampal neurons were placed on 8-well chamber slides coated with 1 mg/ml poly-D-lysine at a cell density of 3×10^5 cells/ml. For neuronal morphology, neurons at 1 DIV were transfected with EGFP constructs or together with testing constructs at a ratio of 1:1 using Lipofectamine 2000 (Invitrogen) according to manufacturer guidelines. For LysoTracker experiments, GFP transfected neurons at 5 DIV were incubated with 100 nM Lysotracker Red DND-99 at 37° C. for 30 min. After washing with PBS for 3 times, cells were imaged live or cells were fixed with 4% paraformaldehyde for 15 min and Z-series images were obtained under a Zeiss LSM710 confocal laser scanning microscope.
Images of cultured hippocampal neurons (2 DIV) were captured from randomly chosen fields on a Zeiss LSM710 confocal laser scanning microscope, blinded to genotypes, and traced using Metamorph Neurite Outgrowth software. The number of processes (i.e., neurites emanating directly from the cell body) per cell, the total number and total cumulative length of all neurite branches per cell and the length of the longest neurite per cell were determined. Z-series images of individual GFP-filled neurons at 5 DIV were obtained on a Carl Zeiss 710 confocal microscope and traced manually using Neurolucida software. Quantification of the branch number and total length of axons and dendrites per cell was done on images acquired with 20× objective. Quantitative analysis for LysoTracker red labeled endosomes was performed by using Neurolucida in images acquired with 63× objective. LysoTracker red puncta that completely overlapped with GFP-labeled dendrites or axons were scored as co-localized endosomes. Each experiment was performed on at least three different batches of cultured neurons.
Taken together our data support a model wherein due to loss of NHE6 there is an abnormal acidification of early endosomes resulting in impoverished branching as a result of decreases in BDNF/TrkB signaling. Given this model, we predicted that exogenous and high levels of BDNF may rescue the branching defects through enhancing TrkB signaling. To investigate the ability of exogenous BDNF to interact and improve the cellular phenotype seen, we added BDNF (50 ng/ml) to wild-type and mutant cultures at 2 DIV and examined cultures on day 5 for effects on axonal and dendritic branching associated with NHE6 mutation. […] We saw effects on both branching as well as an increase in the number of primary dendrites. […]

[2] = system: TrkB receptor; test: Western blot of TrkB receptor and phospho-Trk levels after BDNF in hippocampal cultures at 4 DIV; type: cell-based, mouse; conditions: for TrkB receptor level normalized to time of BDNF administration: 50 ng/ml BDNF for 30 min
Method: as §1
Next, we examined directly the levels of TrkB receptor in response to signaling. TrkB is well-known to be endocytosed upon binding BDNF and a significant degree of signaling has been proposed to occur within signaling endosomes upon endocytosis. […] To test this hypothesis, we examined TrkB receptor levels and phospho-Trk levels in response to BDNF signaling in NHE6 mutant and wild type hippocampal cultures at 4 DIV.

[3] = NHE6 mutant neurons, BDNF 50 ng/ml added at 2 DIV, examined on day 5

B1: BDNF: secreted protein, member of the neurotrophin family of growth factors; binds to the TrkB receptors (protein)
chain: HSDPARRGELSVCDSISEWVTAADKKTAVDMSGGTVTVLEKVPVSKGQLKQYFYETKCNPMGYTKEGCRGIDKRHWNSQCRTTQSYVRALTMDSKKRIGWRFIRIDTSCVCTLTIKRGR
[1]; NHE6 mutant cells, BDNF 50 ng/ml, 2 DIV to day 5
  rescue of branching defects (in words): increased both axonal and dendritic branching in mutant cells to a level approaching wild-type levels
[1]; [3]
  axonal branching: 27.7+/−2.0 branch points per cell
  dendritic branching: 34.4+/−2.4 branches per cell
  primary dendrites: 8.7+/−0.4 dendrites
[2]; NHE6 mutant neurons
  TrkB receptor level normalized to time of BDNF administration: 0.79+/−0.04
[2]; mutant/WT, 50 ng/ml BDNF, 30 min
  TrkB receptor level in mutant neurons as % of the control: 76.5%
[2]; mutant/WT, 50 ng/ml BDNF, 60 min
  TrkB receptor level in mutant neurons as % of wild type: 73.3%
[2]; mutant/WT, 50 ng/ml BDNF, 2 h
  TrkB receptor level in mutant neurons as % of wild type: 74.9%
[2]; mutant/WT, after adding BDNF, throughout the whole treatment duration
  induction of phospho-Trk in mutant compared to control: approximately 48%
[2]; wild type neurons
  TrkB receptor level normalized to time of BDNF administration: 1.03+/−0.06
